Experimental data taken from article doi:10.1101/2024.10.29.620959v2.

Columns and labels:
[1] = substrate: CCCCCCCCCCCCCCCC(=O)O; test: purified protein; conditions: pH 7.5
[2] = substrate: CCCCCCCCCCCC(=O)O; test: purified protein; conditions: pH 7.5

B1: FadD5 (Mycobacterium tuberculosis H37Rv) (protein)
chain: MTAQLASHLTRALTLAQQQPYLARRQNWVNQLERHAMMQPDAPALRFVGNTMTWADLRRRVAALAGALSGRGVGFGDRVMILMLNRTEFVESVLAANMIGAIAVPLNFRLTPTEIAVLVEDCVAHVMLTEAALAPVAIGVRNIQPLLSVIVVAGGSSQDSVFGYEDLLNEAGDVHEPVDIPNDSPALIMYTSGTTGRPKGAVLTHANLTGQAMTALYTSGANINSDVGFVGVPLFHIAGIGNMLTGLLLGLPTVIYPLGAFDPGQLLDVLEAEKVTGIFLVPAQWQAVCTEQQARPRDLRLRVLSWGAAPAPDALLRQMSATFPETQILAAFGQTEMSPVTCMLLGEDAIAKRGSVGRVIPTVAARVVDQNMNDVPVGEVGEIVYRAPTLMSCYWNNPEATAEAFAGGWFHSGDLVRMDSDGYVWVVDRKKDMIISGGENIYCAELENVLASHPDIAEVAVIGRADEKWGEVPIAVAAVTNDDLRIEDLGEFLTDRLARYKHPKALEIVDALPRNPAGKVLKTELRLRYGACVNVERRSASAGFTERRENRQKL
B1 was tested, and the Km [1] was 89.83 ± 9.71 µM and the Km [2] was 102 ± 8.55 µM.
